In publication PMC7494997 one finds percent of parent data, which are given here for four molecules.

The experiment addresses SG7. The experiment can be described thus: flow cytometry on yeast-displayed VISTA. Conditions: chain shown with the change; 4 nM SG7; parent: est. 100; read off a plot. On the technique in general: In flow cytometry, cells or beads pass a laser one at a time.

Sequence of SG7 (chain, as listed by the source, chain 1 of 2): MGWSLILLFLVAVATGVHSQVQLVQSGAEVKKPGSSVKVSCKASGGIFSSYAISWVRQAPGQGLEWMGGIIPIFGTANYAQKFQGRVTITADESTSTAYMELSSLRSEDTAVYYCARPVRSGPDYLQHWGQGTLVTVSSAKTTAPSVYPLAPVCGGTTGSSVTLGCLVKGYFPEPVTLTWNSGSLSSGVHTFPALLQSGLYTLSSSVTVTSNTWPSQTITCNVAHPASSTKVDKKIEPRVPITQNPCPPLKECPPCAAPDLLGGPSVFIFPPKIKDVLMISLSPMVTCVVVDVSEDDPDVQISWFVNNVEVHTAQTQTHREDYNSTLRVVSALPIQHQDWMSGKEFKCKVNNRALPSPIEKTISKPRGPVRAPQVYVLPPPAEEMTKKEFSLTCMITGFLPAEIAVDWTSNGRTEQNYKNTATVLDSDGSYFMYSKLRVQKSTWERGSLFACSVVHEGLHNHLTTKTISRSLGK
Sequence of SG7 (chain, as listed by the source, chain 2 of 2): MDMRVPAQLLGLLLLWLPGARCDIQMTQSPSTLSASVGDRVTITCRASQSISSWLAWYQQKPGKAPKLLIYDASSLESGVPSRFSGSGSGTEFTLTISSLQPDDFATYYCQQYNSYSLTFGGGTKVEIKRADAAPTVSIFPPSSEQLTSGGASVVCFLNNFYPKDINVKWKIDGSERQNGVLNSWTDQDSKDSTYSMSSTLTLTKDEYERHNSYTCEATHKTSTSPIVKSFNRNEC

B1: yeast-displayed mVISTA E124A (protein)
chain: FKVTTPYSLYVCPEGQNATLTCRILGPVSKGHDVTIYKTWYLSSRGEVQMCKEHRPIRNFTLQHLQHHGSHLKANASHDQPQKHGLELASDHHGNFSITLRNVTPRDSGLYCCLVIELKNHHPAQRFYGSMELQVQAGKGSGSTCMASNEQDSDSITAA
Consider B1, for which the percent of parent was 9 % WT.

B2: yeast-displayed mVISTA I36A (protein)
chain: FKVTTPYSLYVCPEGQNATLTCRILGPVSKGHDVTAYKTWYLSSRGEVQMCKEHRPIRNFTLQHLQHHGSHLKANASHDQPQKHGLELASDHHGNFSITLRNVTPRDSGLYCCLVIELKNHHPEQRFYGSMELQVQAGKGSGSTCMASNEQDSDSITAA
Turning to B2, the percent of parent was 13 % WT.

B3: yeast-displayed mVISTA H121A (protein)
chain: FKVTTPYSLYVCPEGQNATLTCRILGPVSKGHDVTIYKTWYLSSRGEVQMCKEHRPIRNFTLQHLQHHGSHLKANASHDQPQKHGLELASDHHGNFSITLRNVTPRDSGLYCCLVIELKNAHPEQRFYGSMELQVQAGKGSGSTCMASNEQDSDSITAA
As to B3, the percent of parent stood at 1 % WT.

B4: yeast-displayed mVISTA K38A (protein)
chain: FKVTTPYSLYVCPEGQNATLTCRILGPVSKGHDVTIYATWYLSSRGEVQMCKEHRPIRNFTLQHLQHHGSHLKANASHDQPQKHGLELASDHHGNFSITLRNVTPRDSGLYCCLVIELKNHHPEQRFYGSMELQVQAGKGSGSTCMASNEQDSDSITAA
With B4, the percent of parent stood at 63 % WT.
